What all share (experiment): SPR; cytokine immobilised on ProteOn GLH sensor chip by amine coupling (9,000-14,000 RU); S100P (wild type or mutant) as analyte, 62 nM-16 µM; 25 °C; 10 mM HEPES, 150 mM NaCl, 1 mM CaCl2, 0.05% TWEEN 20, pH 7.4; heterogeneous ligand model (two ligand populations), one-site model for IL-13; values averaged over analyte concentrations (n = 3-5)
What all share (settings): both partners purified
(In general: Surface plasmon resonance follows binding to a sensor surface in real time, without labels.)

For one assay, the target named is T1, Interleukin-24 (human, UniProt Q13007 52-206).
T1 construct: Interleukin-24, human, UniProt Q13007; see the manufacturer's catalogue number; also called IL-24; source: bought: PeproTech (source CHO)
T1 sequence (looked up): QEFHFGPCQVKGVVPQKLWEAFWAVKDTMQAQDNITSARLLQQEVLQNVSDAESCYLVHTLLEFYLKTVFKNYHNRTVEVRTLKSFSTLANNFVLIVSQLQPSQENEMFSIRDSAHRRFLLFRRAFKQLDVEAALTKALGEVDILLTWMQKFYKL

The next assay concerns the target T2, Interleukin-10 (human, UniProt P22301 19-178).
T2 construct: Interleukin-10, human, UniProt P22301; see the manufacturer's catalogue number; also called IL-10; source: bought: PeproTech (source E. coli)

The target of another assay is T3, Interleukin-5 (human, UniProt P05113 20-134).
T3 construct: Interleukin-5, human, UniProt P05113; also called IL-5; source: bought: PeproTech (source E. coli)
T3 sequence (P05113 20-134): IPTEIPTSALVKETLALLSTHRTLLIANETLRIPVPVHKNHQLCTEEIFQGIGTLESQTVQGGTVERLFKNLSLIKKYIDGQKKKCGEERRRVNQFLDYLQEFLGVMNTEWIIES

The target in assay [1] is T4, Granulocyte-macrophage colony-stimulating factor (human, UniProt P04141 18-144).
T4 construct: Granulocyte-macrophage colony-stimulating factor, human, UniProt P04141; see the manufacturer's catalogue number; also called GM-CSF; source: bought: PeproTech (source E. coli)
T4 sequence (P04141 18-144): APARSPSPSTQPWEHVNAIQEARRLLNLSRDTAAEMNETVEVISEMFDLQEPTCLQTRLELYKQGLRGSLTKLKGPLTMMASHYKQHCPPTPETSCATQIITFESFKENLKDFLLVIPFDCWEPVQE

A further assay has as its target T5, Interleukin-15 (human, UniProt P40933 49-162).
T5 construct: Interleukin-15, human, UniProt P40933; see the manufacturer's catalogue number; also called IL-15; source: bought: PeproTech (source E. coli)

Another assay addresses T6, Interleukin-27 (human, UniProt Q8NEV9 29-243; Q14213 21-229).
T6 construct: the chain used for the SCOP family assignment; also called IL-27; source: bought: PeproTech (source HEK293)
T6 sequence (looked up) 1: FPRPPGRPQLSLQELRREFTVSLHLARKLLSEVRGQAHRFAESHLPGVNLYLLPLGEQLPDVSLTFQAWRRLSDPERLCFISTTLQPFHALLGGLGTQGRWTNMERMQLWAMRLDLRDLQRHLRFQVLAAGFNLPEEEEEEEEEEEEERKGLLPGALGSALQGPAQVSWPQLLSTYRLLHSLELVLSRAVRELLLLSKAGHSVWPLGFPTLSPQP
T6 sequence (looked up) 2: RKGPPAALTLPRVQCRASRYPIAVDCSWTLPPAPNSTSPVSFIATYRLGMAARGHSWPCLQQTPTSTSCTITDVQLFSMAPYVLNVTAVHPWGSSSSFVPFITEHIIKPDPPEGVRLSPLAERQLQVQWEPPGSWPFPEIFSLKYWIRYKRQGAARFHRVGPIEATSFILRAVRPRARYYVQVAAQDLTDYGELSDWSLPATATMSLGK

T2 sequence (P22301 19-178): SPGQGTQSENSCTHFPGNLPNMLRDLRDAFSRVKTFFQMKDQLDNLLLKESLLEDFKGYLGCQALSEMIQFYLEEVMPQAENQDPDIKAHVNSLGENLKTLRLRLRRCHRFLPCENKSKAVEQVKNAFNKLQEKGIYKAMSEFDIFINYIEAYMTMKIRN
T5 sequence (P40933 49-162): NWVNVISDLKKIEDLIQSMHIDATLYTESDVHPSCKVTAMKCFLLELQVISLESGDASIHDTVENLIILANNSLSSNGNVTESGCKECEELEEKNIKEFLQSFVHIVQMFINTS

B1: Human S100P protein (recombinant, Ca^2+-loaded) (natural protein)
chain: MTELETAMGMIIDVFSRYSGSEGSTQTLTKGELKVLMEKELPGFLQSGKDKDAVDKLLKDLDANGDAQVDFSEFIVFVAAITSACHKYFEKAGLK
notes: S100P protein, human, recombinant; probably the whole 95-residue protein (surmise); also called wild-type S100P; WT S100P; source: E. coli, prepared as previously described [28]
Consider B1, for which the “Kd1 (heterogeneous ligand model, population 1)” value in the assay with Interleukin-24 was 158 nM; with Interleukin-10, 2.55 µM; with Interleukin-5, 3.66 nM; in assay [1], 245 nM; with Interleukin-15, 102 nM; in the assay with Interleukin-27 it was 859 nM. The “Kd2 (heterogeneous ligand model, population 2)” value with Interleukin-24 was 918 nM; with Interleukin-10, 2.66 µM; with Interleukin-5, 833 nM; in assay [1] it was 450 nM; with Interleukin-15 it was 980 nM; in the assay with Interleukin-27, 1.69 µM. Besides, the “kd1 (heterogeneous ligand model, population 1)” value in the assay with Interleukin-24 was 0.000483 s⁻¹; with Interleukin-10, 0.0106 s⁻¹; with Interleukin-5, 0.000612 s⁻¹; in assay [1], 0.00113 s⁻¹; with Interleukin-15, 0.00109 s⁻¹; with Interleukin-27, 0.00994 s⁻¹. Besides, the “kd2 (heterogeneous ligand model, population 2)” value worked out at 0.00794 s⁻¹ in the assay with Interleukin-24; 0.000519 s⁻¹ with Interleukin-10; 0.00712 s⁻¹ with Interleukin-5; 0.0672 s⁻¹ in assay [1]; 0.0272 s⁻¹ with Interleukin-15; 0.000357 s⁻¹ with Interleukin-27.

Source of the values: paper PMC9569990 (International Journal of Molecular Sciences, 2022).
